This is an account of results in publication PMC11073785, “YeeD is an essential partner for YeeE-mediated thiosulfate uptake in bacteria and regulates thiosulfate ion decomposition” (PLOS Biology, 2024).

The labels stand for the following.
B1: Spirochaeta thermophila YeeE [Spirochaeta thermophila] / Spirochaeta thermophila YeeD (WT), His6-tagged [Spirochaeta thermophila] (parent complex)
chain 1: MIWTGLLVGFLFGIVLQRGRICFNSAFRDVLLFKDNYLFKLAVFTLALEMILFVLLSQVGLMQMNPKPLNLVGNIIGGFVFGLGMVLAGGCASGVTYRVGEGLTTAWFAALFYGLGAYATKSGAFSWWLSWVGQFKSPLSVEESAYYVKGAGPTISSVLGLNPWIPALVIAALFILWAFGTKTTSRETKFNWKIASVCLALVAGLGFITSTLSGRKYGLGITGGWINLFQGFLTNSPLNWEGLEIVGIILGAGVAAAVAGEFKLRMPKNPVTYLQVGIGGLLMGIGAVTAGGCNIGHFLTGVPQLALSSWLASIFFILGNWTMAWILF
chain 2: MANYQVSKEIDVRGEVCPIPDVEAKRAVQSANDGEIILVRIDYPLSKERIPETVKKLGSEVLEIEEAAPGEWNIYIKVKK

In this assay the parent is B1. Description: BLI; Octet buffer (20 mM Tris-HCl (pH 8.0), 300 mM NaCl, 0.1% (w/v) DDM, 1 mM β-ME); response at 120 s; parent: 1.8; read off a plot. Background: Biolayer interferometry detects binding as a change in optical thickness at a sensor tip.
As for chain 2 D42A, the response was around 0.04 nm.

On to chain 2 C17A, for which the response is around 0.14 nm.
